The test system of data set [1] is Saccharomyces cerevisiae. Description: protein stability index of tFT-peptide fusion in deletion strain of DAS1 (PSI (0-1 scale)); higher = more stable (slower turnover). The procedure: (§1)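 MPS profiling in S. cerevisiae of two library types built from selected 12-aa C-degron peptides (IN1, IN2, LN1, LN3, VN2, R1-R5, W1-W3, Atg1 and Rpa12 C-termini): saturation mutagenesis libraries and C-terminal +1 capping libraries (13 aa). Each peptide is fused to the C-terminus of a sfGFP-mCherry timer, after a GGGS linker. Cells are FACS-sorted into 8 mCherry/sfGFP bins and sequenced. PSI runs from 0 (unstable) to 1 (stable), measured once in wild type and in the das1Δ or doa10Δ background.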

The test system of data set [2] is Saccharomyces cerevisiae. Description: protein stability index of tFT-peptide fusion in wild type (PSI (0-1 scale)); higher = more stable (slower turnover). The note with it: genetic background: wild type. The procedure:
as §1

The text below walks through data of the supplement of paper PMC10724198.
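Throughout, for protein stability index of tFT-peptide fusion in deletion strain of DAS1: PSI is a weighted mean of each variant's read distribution over the sorted stability bins, computed only for variants having over 10 reads in total.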
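Throughout, for protein stability index of tFT-peptide fusion in wild type: PSI derived as read-weighted mean over the 8 sorting bins, only variants exceeding 10 total reads kept, mCherry placed adjacent to the peptide and sfGFP distal.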

In the case of ARWRVGLWRGAG, the values for the protein stability index with Saccharomyces cerevisiae [1] and in the data set with Saccharomyces cerevisiae [2] were 0.64 and 0.254, respectively.
ARWRVGLWRGAH: the protein stability index was determined as 0.688 in the data set with Saccharomyces cerevisiae [1] and 0.536 with Saccharomyces cerevisiae [2].
On to ARWRVGLWRGASE, for which the protein stability index with Saccharomyces cerevisiae [1] was 0.666; in the data set on Saccharomyces cerevisiae [2] it was 0.663.
On to ARWRVGLWRGASL, for which the values for the protein stability index in the data set on Saccharomyces cerevisiae [1] and with Saccharomyces cerevisiae [2] were 0.715 and 0.719, respectively.
The like results for ARWRVGLWRGASN were, in that order, 0.689 and 0.658.
The like results for ARWRVGLWRGASY were, in that order, 0.69 and 0.653.
For ARWRVGLWRGDS, the figures for the protein stability index with Saccharomyces cerevisiae [1] and in the data set with Saccharomyces cerevisiae [2] were 0.688 and 0.667, respectively.
For the sequence ARWRVGLWRGMS, the protein stability index came to 0.663 with Saccharomyces cerevisiae [1] and 0.202 in the data set with Saccharomyces cerevisiae [2].
The like results for ARWRVGLWRIAS were, in that order, 0.677 and 0.088.
As for ARWRVGLWRQAS, the values for the protein stability index in the data set with Saccharomyces cerevisiae [1] and with Saccharomyces cerevisiae [2] were 0.678 and 0.0958, respectively.
On to ARWRVGLWRVAS, for which the protein stability index in the data set with Saccharomyces cerevisiae [1] came to 0.67; in the data set on Saccharomyces cerevisiae [2], 0.0841.
The like results for ARWRVGLWYGAS were, in that order, 0.718 and 0.603.
For the sequence ARWRVGVWRGAS, the protein stability index was 0.686 in the data set on Saccharomyces cerevisiae [1] and 0.304 in the data set on Saccharomyces cerevisiae [2].
The like results for ARWWVGLWRGAS were, in that order, 0.742 and 0.508.
CDSCGYKFRTNN: the protein stability index with Saccharomyces cerevisiae [1] was determined as 0.691; in the data set on Saccharomyces cerevisiae [2], 0.251.
With CKHKKGQKQKIN, the protein stability index was found to be 0.568 with Saccharomyces cerevisiae [1] and 0.0815 in the data set with Saccharomyces cerevisiae [2].
As for CTMCGYKFRTNN, the protein stability index with Saccharomyces cerevisiae [1] came to 0.69; in the data set on Saccharomyces cerevisiae [2], 0.236.
For CTSAGYKFRTNN, the protein stability index with Saccharomyces cerevisiae [1] came to 0.678; in the data set with Saccharomyces cerevisiae [2], 0.303.
As to CTSCGHKFRTNN, the values for the protein stability index in the data set with Saccharomyces cerevisiae [1] and in the data set with Saccharomyces cerevisiae [2] were 0.706 and 0.256, respectively.
Take CTSCGRKFRTNN: the protein stability index in the data set on Saccharomyces cerevisiae [1] amounted to 0.717; with Saccharomyces cerevisiae [2], 0.456.
With CTSCGSKFRTNN, the values for the protein stability index in the data set with Saccharomyces cerevisiae [1] and with Saccharomyces cerevisiae [2] were 0.692 and 0.549, respectively.
On to CTSCGYKFLTNN, for which the figures for the protein stability index with Saccharomyces cerevisiae [1] and in the data set on Saccharomyces cerevisiae [2] were 0.696 and 0.332, respectively.
Turning to CTSCGYKFQTNN, the protein stability index in the data set on Saccharomyces cerevisiae [1] turned out to be 0.723; with Saccharomyces cerevisiae [2], 0.175.
For CTSCGYKFRSNN, in that order: 0.715 and 0.508.
Consider CTSCGYKFRTGN, for which the protein stability index in the data set with Saccharomyces cerevisiae [1] came out at 0.701; in the data set with Saccharomyces cerevisiae [2] it was 0.581.
As to CTSCGYKFRTNI, the protein stability index in the data set on Saccharomyces cerevisiae [1] amounted to 0.701; in the data set with Saccharomyces cerevisiae [2], 0.601.
The like results for CTSCGYKFRTNNL were, in that order, 0.715 and 0.723.
Take CTSCGYKFRTNNQ: the protein stability index with Saccharomyces cerevisiae [1] amounted to 0.673; in the data set with Saccharomyces cerevisiae [2], 0.681.
For CTSCGYKFRTNV, in that order: 0.681 and 0.53.
For CTSCGYKFRTWN, in that order: 0.727 and 0.288.
For the sequence CTSCGYTFRTNN, the protein stability index with Saccharomyces cerevisiae [1] came out at 0.708; in the data set on Saccharomyces cerevisiae [2] it was 0.245.
Take CTSCIYKFRTNN: the protein stability index is 0.666 in the data set with Saccharomyces cerevisiae [1] and 0.163 with Saccharomyces cerevisiae [2].
Regarding CTSCPYKFRTNN, the protein stability index worked out at 0.666 with Saccharomyces cerevisiae [1] and 0.261 in the data set on Saccharomyces cerevisiae [2].
As for CTSYGYKFRTNN, the protein stability index in the data set with Saccharomyces cerevisiae [1] is 0.688; in the data set on Saccharomyces cerevisiae [2] it was 0.145.
Take EKHKKGQKQKIN: the protein stability index with Saccharomyces cerevisiae [1] came to 0.613; in the data set with Saccharomyces cerevisiae [2] it was 0.178.
As to FKMRWTFRYWVN, the protein stability index in the data set with Saccharomyces cerevisiae [1] was found to be 0.735; in the data set with Saccharomyces cerevisiae [2] it was 0.119.
Take FLMRWTFRYWVN: the protein stability index in the data set with Saccharomyces cerevisiae [1] worked out at 0.342; with Saccharomyces cerevisiae [2] it was 0.0449.
Take FPMRWTFRYWVN: the protein stability index stood at 0.574 in the data set with Saccharomyces cerevisiae [1] and 0.062 in the data set on Saccharomyces cerevisiae [2].
With FSHRWTFRYWVN, the protein stability index is 0.568 in the data set with Saccharomyces cerevisiae [1] and 0.0512 in the data set on Saccharomyces cerevisiae [2].
For FSLAASFWRVVG, in that order: 0.671 and 0.121.
For FSMNWTFRYWVN, the protein stability index in the data set with Saccharomyces cerevisiae [1] amounted to 0.496; in the data set with Saccharomyces cerevisiae [2], 0.0654.
For FSMQWTFRYWVN, in that order: 0.466 and 0.0371.
In the case of FSMRMTFRYWVN, the protein stability index is 0.464 in the data set with Saccharomyces cerevisiae [1] and 0.0474 with Saccharomyces cerevisiae [2].
On to FSMRWTFGYWVN, for which the protein stability index in the data set on Saccharomyces cerevisiae [1] was 0.404; in the data set on Saccharomyces cerevisiae [2], 0.0637.
Take FSMRWTFMYWVN: the figures for the protein stability index in the data set on Saccharomyces cerevisiae [1] and in the data set with Saccharomyces cerevisiae [2] were 0.456 and 0.0968, respectively.
With FSMRWTFQYWVN, the values for the protein stability index in the data set on Saccharomyces cerevisiae [1] and in the data set with Saccharomyces cerevisiae [2] were 0.502 and 0.0522, respectively.
Turning to FSMRWTFRLWVN, the figures for the protein stability index with Saccharomyces cerevisiae [1] and in the data set on Saccharomyces cerevisiae [2] were 0.291 and 0.028, respectively.
FSMRWTFRNWVN: the figures for the protein stability index in the data set on Saccharomyces cerevisiae [1] and in the data set on Saccharomyces cerevisiae [2] were 0.589 and 0.0567, respectively.
As for FSMRWTFRYAVN, the protein stability index with Saccharomyces cerevisiae [1] turned out to be 0.585; in the data set with Saccharomyces cerevisiae [2], 0.158.
As for FSMRWTFRYWVNA, the protein stability index in the data set with Saccharomyces cerevisiae [1] came to 0.496; with Saccharomyces cerevisiae [2], 0.163.
FSMRWTFVYWVN: the figures for the protein stability index in the data set on Saccharomyces cerevisiae [1] and in the data set with Saccharomyces cerevisiae [2] were 0.327 and 0.0513, respectively.
On to FSMRWTKRYWVN, for which the results for the protein stability index in the data set on Saccharomyces cerevisiae [1] and in the data set with Saccharomyces cerevisiae [2] were 0.545 and 0.0745, respectively.
For FSMRWVFRYWVN, in that order: 0.495 and 0.077.
On to FSMVWTFRYWVN, for which the protein stability index stood at 0.314 in the data set with Saccharomyces cerevisiae [1] and 0.0843 in the data set with Saccharomyces cerevisiae [2].
For the sequence FSQRWTFRYWVN, the protein stability index in the data set with Saccharomyces cerevisiae [1] came to 0.563; in the data set with Saccharomyces cerevisiae [2] it was 0.0417.
On to GKILRQKMNHQN, for which the protein stability index with Saccharomyces cerevisiae [1] amounted to 0.677; in the data set on Saccharomyces cerevisiae [2] it was 0.263.
As to HRWRVGLWRGAS, the protein stability index in the data set with Saccharomyces cerevisiae [1] was 0.676; with Saccharomyces cerevisiae [2], 0.457.
For IRWRVGLWRGAS, in that order: 0.707 and 0.163.
For KGHKKGQKQKIN, the protein stability index in the data set on Saccharomyces cerevisiae [1] was 0.57; in the data set with Saccharomyces cerevisiae [2] it was 0.108.
For KKAKKGQKQKIN, in that order: 0.624 and 0.106.
For KKHDKGQKQKIN, the protein stability index with Saccharomyces cerevisiae [1] is 0.587; in the data set on Saccharomyces cerevisiae [2], 0.0762.
With KKHKGGQKQKIN, the results for the protein stability index in the data set with Saccharomyces cerevisiae [1] and in the data set with Saccharomyces cerevisiae [2] were 0.584 and 0.0809, respectively.
For the sequence KKHKKGQKDKIN, the results for the protein stability index in the data set with Saccharomyces cerevisiae [1] and with Saccharomyces cerevisiae [2] were 0.63 and 0.652, respectively.
KKHKKGQKQKGN: the protein stability index with Saccharomyces cerevisiae [1] stood at 0.616; with Saccharomyces cerevisiae [2] it was 0.61.
With KKHKKGQKQKINI, the protein stability index in the data set on Saccharomyces cerevisiae [1] stood at 0.661; in the data set on Saccharomyces cerevisiae [2], 0.649.
As to KKHKKGQKQKINV, the results for the protein stability index with Saccharomyces cerevisiae [1] and in the data set with Saccharomyces cerevisiae [2] were 0.657 and 0.647, respectively.
Consider KKHKKGQKQKINY, for which the protein stability index in the data set with Saccharomyces cerevisiae [1] was found to be 0.663; in the data set with Saccharomyces cerevisiae [2], 0.643.
